The target of data set [1] is T1, MBP-CTCF(F4-F8) (Homo sapiens, UniProt P49711 351-489).
T1 sequence: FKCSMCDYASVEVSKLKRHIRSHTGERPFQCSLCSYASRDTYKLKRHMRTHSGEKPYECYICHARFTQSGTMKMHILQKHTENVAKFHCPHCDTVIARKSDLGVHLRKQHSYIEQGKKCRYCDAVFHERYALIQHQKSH
The experiment in a line: fluorescence anisotropy; 100 uM ZnCl2; apparent KD, fit bounds fixed to WT; above top protein concentration 34.5 uM; 20 mM Tris pH 8, 200 mM KCl, 100 uM ZnCl2, 1 mM DTT, 25 C; 10 nM dsDNA, MBP-CTCF up to 34.5 uM. Particulars: protein: recombinant; tags: MBP (N-terminal, pMAL-c2g); label: 6-FAM at 5' end of reverse strand; blunt. (Fluorescence polarisation rises when a labelled molecule tumbles more slowly, as on binding a larger partner.)

Data set [2] has as its target T1, MBP-CTCF(F4-F8). Briefly: fluorescence anisotropy; 100 uM ZnCl2; apparent KD; 20 mM Tris pH 8, 200 mM KCl, 100 uM ZnCl2, 1 mM DTT, 25 C; 10 nM dsDNA, MBP-CTCF up to 34.5 uM. Particulars: protein: recombinant; tags: MBP (N-terminal, pMAL-c2g); label: 6-FAM at 5' end of reverse strand; blunt.

Drawing on article PMC7076015, “An epilepsy-associated mutation in the nuclear import receptor KPNA7 reduces nuclear localization signal binding”, this text covers Kd for two molecules.

B1: KPNA7 exon 7 CTCF motif c.1030G>C (dsDNA)
DNA 1: ATCCAGAAGCAGGCAG
DNA 2: CTGCCTGCTTCTGGAT
In the case of B1, the Kd in data set [1] was found to be 76 ± 16.2 µM.

B2: KPNA7 exon 7 CTCF motif WT (dsDNA)
DNA 1: ATCCAGAAGGAGGCAG
DNA 2: CTGCCTCCTTCTGGAT
Take B2: the Kd in data set [2] worked out at 1760 ± 84 nM.
